Laboratory results from publication PMC5482573 (eLife, 2017).

T1: α-COP (M. musculus, in recombinant coatomer) (M. musculus, UniProt Q8CIE6 1-1224)
T1 construct: alpha-COP, coatomer subunit alpha, M. musculus; Stood in the assays as a subunit of the whole heptameric coatomer; source: SF9 insect cells (baculovirus), as part of recombinant coatomer, purified
T1 sequence: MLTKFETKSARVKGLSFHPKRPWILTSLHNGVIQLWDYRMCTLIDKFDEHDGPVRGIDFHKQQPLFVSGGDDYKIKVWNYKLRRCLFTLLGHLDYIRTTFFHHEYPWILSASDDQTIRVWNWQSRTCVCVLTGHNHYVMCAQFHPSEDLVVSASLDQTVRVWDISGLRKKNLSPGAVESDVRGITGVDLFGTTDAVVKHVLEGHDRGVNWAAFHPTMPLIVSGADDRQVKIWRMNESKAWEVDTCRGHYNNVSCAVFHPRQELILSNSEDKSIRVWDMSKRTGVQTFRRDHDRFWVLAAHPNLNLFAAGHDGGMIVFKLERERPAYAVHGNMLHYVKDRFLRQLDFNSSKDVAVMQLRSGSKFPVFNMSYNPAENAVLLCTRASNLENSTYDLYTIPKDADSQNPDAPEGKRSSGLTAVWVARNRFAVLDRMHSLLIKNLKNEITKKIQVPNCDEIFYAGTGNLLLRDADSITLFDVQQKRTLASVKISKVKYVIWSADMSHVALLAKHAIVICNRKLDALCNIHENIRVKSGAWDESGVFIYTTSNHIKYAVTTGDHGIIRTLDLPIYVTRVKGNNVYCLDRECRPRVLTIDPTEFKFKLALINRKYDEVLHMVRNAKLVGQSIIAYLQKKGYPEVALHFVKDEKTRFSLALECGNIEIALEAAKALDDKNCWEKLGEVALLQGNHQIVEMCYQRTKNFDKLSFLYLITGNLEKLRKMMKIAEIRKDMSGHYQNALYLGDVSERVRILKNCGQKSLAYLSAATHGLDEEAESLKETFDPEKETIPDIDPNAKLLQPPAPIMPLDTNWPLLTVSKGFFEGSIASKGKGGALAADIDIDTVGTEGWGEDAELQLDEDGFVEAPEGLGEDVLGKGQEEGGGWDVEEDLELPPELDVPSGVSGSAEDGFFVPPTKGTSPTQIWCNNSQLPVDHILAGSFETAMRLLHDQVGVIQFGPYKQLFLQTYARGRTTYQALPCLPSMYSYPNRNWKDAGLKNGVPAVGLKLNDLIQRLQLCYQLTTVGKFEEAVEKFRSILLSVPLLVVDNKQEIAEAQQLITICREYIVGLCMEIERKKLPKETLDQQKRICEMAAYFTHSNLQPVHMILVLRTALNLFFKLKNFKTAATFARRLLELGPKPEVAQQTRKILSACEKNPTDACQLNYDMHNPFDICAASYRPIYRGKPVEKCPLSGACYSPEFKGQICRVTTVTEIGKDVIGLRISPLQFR

B1: β-COP (M. musculus, in recombinant coatomer) (natural protein)
chain: MTAAENVCYTLINVPMDSEPPSEISLKNDLEKGDVKSKTEALKKVIIMILNGEKLPGLLMTIIRFVLPLQDHTIKKLLLVFWEIVPKTTPDGRLLHEMILVCDAYRKDLQHPNEFIRGSTLRFLCKLKEAELLEPLMPAIRACLEHRHSYVRRNAVLAIYTIYRNFEHLIPDAPELIHDFLVNEKDASCKRNAFMMLIHADQDRALDYLSTCIDQVQTFGDILQLVIVELIYKVCHANPSERARFIRCIYNLLQSSSPAVKYEAAGTLVTLSSAPTAIKAAAQCYIDLIIKESDNNVKLIVLDRLVELKEHPAHERVLQDLVMDILRVLSTPDLEVRKKTLQLALDLVSSRNVEELVIVLKKEVIKTNNVSEHEDTDKYRQLLVRTLHSCSVRFPDMAANVIPVLMEFLSDSNEAAAADVLEFVREAIQRFDNLRMLIVEKMLEVFHAIKSVKIYRGALWILGEYCSTKEDIQSVMTEVRRSLGEIPIVESEIKKEAGELKPEEEITVGPVQKLVTEMGTYATQSALSSSRPTKKEEDRPPLRGFLLDGDFFVAASLATTLTKIALRYVALVQEKKKQNSFVAEAMLLMATILHLGKSSLPKKPITDDDVDRISLCLKVLSECSPLMNDIFNKECRQSLSQMLSAKLEEEKLSQKKESEKRNVTVQPDDPISFMQLTAKNEMNCKEDQFQLSLLAAMGNTQRKEAADPLASKLNKVTQLTGFSDPVYAEAYVHVNQYDIVLDVLVVNQTSDTLQNCTLELATLGDLKLVEKPSPLTLAPHDFANIKANVKVASTENGIIFGNIVYDVSGAASDRNCVVLSDIHIDIMDYIQPATCTDAEFRQMWAEFEWENKVTVNTNMTDLNDYLQHILKSTNMKCLTPEKALSGYCGFMAANLYARSIFGEDALANVSIEKPVHQGPDAAVTGHIRIRAKSQGMALSLGDKINLSQKKTSL
notes: beta-COP, coatomer subunit beta, M. musculus. numbers count on: the construct with its N-terminal His-tag, shifted by 15 residues relative to Q9JIF7; Stood in the assays as a subunit of the whole heptameric coatomer; The coatomer of the photo-cross-linking is called only 'coatomer'; source: SF9 insect cells (baculovirus), as part of recombinant coatomer, purified
B2: β’-COP (M. musculus, in recombinant coatomer) (natural protein)
chain: MPLRLDIKRKLTARSDRVKSVDLHPTEPWMLASLYNGSVCVWNHETQTLVKTFEVCDLPVRAAKFVARKNWVVTGADDMQIRVFNYNTLERVHMFEAHSDYIRCIAVHPTQPFILTSSDDMLIKLWDWDKKWSCSQVFEGHTHYVMQIVINPKDNNQFASASLDRTIKVWQLGSSSPNFTLEGHEKGVNCIDYYSGGDKPYLISGADDRLVKIWDYQNKTCVQTLEGHAQNVSCASFHPELPIIITGSEDGTVRIWHSSTYRLESTLNYGMERVWCVASLRGSNNVALGYDEGSIIVKLGREEPAMSMDANGKIIWAKHSEVQQANLKAMGDTEIKDGERLPLAVKDMGSCEIYPQTIQHNPNGRFVVVCGDGEYIIYTAMALRNKSFGSAQEFAWAHDSSEYAIRESNSIVKIFKNFKEKKSFKPDFGAESIYGGFLLGVRSVNGLAFYDWENTELIRRIEIQPKHIFWSDSGELVCIATEESFFILKYLSEKVLAAQETHEGVTEDGIEDAFEVLGEIQEIVKTGLWVGDCFIYTSSVNRLNYYVGGEIVTIAHLDRTMYLLGYIPKDNRLYLGDKELNIVSYSLLVSVLEYQTAVMRRDFSMADKVLPTIPKEQRTRVAHFLEKQGFKQQALTVSTDPEHRFELALQLGELKIAYQLAVEAESEQKWKQLAELAISKCQFSLAQECLHHAQDYGGLLLLATASGNASMVNKLAEGAERDGKNNVAFMSYFLQGKLDACLELLIRTGRLPEAAFLARTYLPSQVSRVVKLWRENLSKVNQKAAESLADPTEYENLFPGLKEAFVVEEWVKETHADLWPAKQYPLVTPNEERNVMEEAKGFQPSRPTAQQEPDGKPASSPVIMASQTTHKEEKSLLELEVDLDNLELEDIDTTDINLDEDILDD
notes: beta'-COP, coatomer subunit beta', M. musculus; Stood in the assays as a subunit of the whole heptameric coatomer; source: SF9 insect cells (baculovirus), as part of recombinant coatomer, purified
B3: S. cerevisiae myristoylated Arf1 (natural protein)
chain: MGLFASKLFSNLFGNKEMRILMVGLDGAGKTTVLYKLKLGEVITTIPTIGFNVETVQYKNISFTVWDVGGQDRIRSLWRHYYRNTEGVIFVVDSNDRSRIGEAREVMQRMLNEDELRNAAWLVFANKQDLPEAMSAAEITEKLGLHSIRNRPWFIQATCATSGEGLYEGLEWLSNSLKNST
modifications: myristoylated
notes: Arf1 (ADP-ribosylation factor 1), S. cerevisiae, loaded with GTPγS on membranes; also called γArf1 (central); βArf1 (peripheral); source: E. coli, purified
B4: R. norvegicus ArfGAP2, full-length, N-terminally His-tagged (enzyme)
chain: not shown
notes: PDB 2P57 was fitted for it; source: insect cells, purified (Ni-NTA, gel filtration)

Tests used:
Settings in all cases: both partners purified
[1] = molecular target: T1, α-COP (M. musculus, in recombinant …); test: cryo-EM structure; cryo-electron tomography and subtomogram averaging of the COPI leaf, 9.2 Å; coat assembled in vitro from coatomer (840 nM), Arf1 (2 μM), GTPγS, ARNO and GUVs, 37°C, 50 mM HEPES pH 7.4, 50 mM KOAc, 1 mM MgCl2
[2] = molecular target: B1; test: as above
[3] = molecular target: B4; test: cryo-EM structure; COPI coated vesicles with GTPγS incubated 15–20 min with a 10 molar excess of ArfGAP2; subtomogram averaging, difference map and classification; class with ArfGAP2 at 10.1 Å
[4] = molecular target: B2; test: as above
[5] = molecular target: B1; test: as above

## B1
[1]
  binding result: binds

## B2
[1]
  binding result: binds
[2]
  binding result: binds

## B3
[3]
  binding result: binds
[2]
  binding result: binds

## B4
[4]
  binding result: binds
[5]
  binding result: binds
